Measured values: paper PMC8047169

Columns and labels:
[1] = biological target: molybdenum-iron protein (MoFeP) of Gluconacetobacter diazotrophicus Mo-nitrogenase (Gluconacetobacter diazotrophicus)
[2] = biological target: molybdenum-iron protein (MoFeP) of Gluconacetobacter diazotrophicus Mo-nitrogenase (Gluconacetobacter diazotrophicus); remark: listed apart in the source

nitrogenase C2H2 reduction activity under 0.1 atm CO with 2 μM CowN against no CowN (0.2 μM MoFeP, 2 μM FeP) [1]: 9 fold | KD^app from a hyperbolic fit of nitrogenase C2H2 reduction activity against CowN concentration under 0.001 atm CO (MoFeP with FeP, turnover conditions) [2]: 400 nM | KD^app from a hyperbolic fit of nitrogenase C2H2 reduction activity against CowN concentration under 0.1 atm CO (MoFeP with FeP, turnover conditions) [2]: 1080 nM
B1: His-CowN (Gluconacetobacter diazotrophicus CowN, His-tagged, refolded, monomeric fraction) (natural protein)
chain: MTEQIDRYVSFRNVEWERRTAEVFALLQPHFDGSTSPFWDYFLRQRVIAHAQGLDDLRVLHNFLPTLKDLLEELDDERTLSRLEELEVLCM
